From US20190040115A1 (IMMATICS BIOTECHNOLOGIES, published 2019)

Molecular target: T1, HLA-A*02:01 (human)
T1 construct: captured on streptavidin plates; also called peptide-receptive MHC molecules
Assay: UV peptide exchange ELISA (anti-b2m); yield grade: + >10%, ++ >20%, +++ >50, ++++ >75%
Text: Candidate peptides for T cell based therapies according to the present invention were further tested for their MHC binding capacity (affinity). The individual peptide-MHC complexes were produced by UV-ligand exchange, where a UV-sensitive peptide is cleaved upon UV-irradiation, and exchanged with the peptide of interest as analyzed. Only peptide candidates that can effectively bind and stabilize the peptide-receptive MHC molecules prevent dissociation of the MHC complexes. To determine the yield of the exchange reaction, an ELISA was performed based on the detection of the light chain (β2m) of stabilized MHC complexes. The assay was performed as generally described in Rodenko et al. (Rodenko et al., 2006).
96 well MAXISorp plates (NUNC) were coated over night with 2 ug/ml streptavidin in PBS at room temperature, washed 4× and blocked for 1 h at 37° C. in 2% BSA containing blocking buffer. Refolded HLA-A*02:01/MLA-001 monomers served as standards, covering the range of 15-500 ng/ml. Peptide-MHC monomers of the UV-exchange reaction were diluted 100 fold in blocking buffer. Samples were incubated for 1 h at 37° C., washed four times, incubated with 2 ug/ml HRP conjugated anti-β2m for 1 h at 37° C., washed again and detected with TMB solution that is stopped with […]. Absorption was measured at 450 nm. Candidate peptides that show a high exchange yield (preferably higher than 50%, most preferred higher than 75%) are generally preferred for a generation and production of antibodies or fragments thereof, and/or T cell receptors or fragments thereof, as they show sufficient avidity to the MHC molecules and prevent dissociation of the MHC complexes.

Binder | peptide exchange yield [%]
SIDDSDPIV | 10 to 20
ALADLQEAV | > 75
LLDSGAFHL | 50 to 75
ILDELVKSL | 50 to 75
HLIGWTAFL | > 75
FIDPEQIQV | 50 to 75
FLETNVPLL | 50 to 75
KILPDLNTV | > 75
LLPDPLYSL | 20 to 50
ILPEAQDYFL | > 75
GILSFLPVL | 50 to 75
QLYNQIIKL | > 75
KLGFGTGVNVYL | > 75
GLDIITNKV | 50 to 75
HLDQIFQNL | 20 to 50
NLDYAILKL | 10 to 20
LLSNTVSTL | 50 to 75
LLEPFVHQV | > 75
LLSEIEEHL | > 75
KLSVHVTAL | > 75
VLYNESLQL | > 75
SLVAILHLL | 50 to 75
VLFGAVITGA | > 75

Binder | peptide exchange yield [%]
SLGPIMLTKI | 20 to 50
LLDDPTNAHFI | 50 to 75
VMSSTLYTV | > 75
FVYGEPREL | 50 to 75
TLKEYLESL | 50 to 75
YLINFEIRSL | > 75
FLYTYIAKV | 50 to 75
LIDKIIEYL | 20 to 50
FLLEQEKTQAL | > 75
TTLGGFAKV | 20 to 50
FLPRKFPSL | > 75
ALLSQDFEL | > 75
KVPEIEVTV | > 75
LLDTTQKYL | > 75
ILDDVAMVL | 50 to 75
NLDKLYHGL | 10 to 20
ILDEGHILQL | > 75
KTWDQVPFSV | > 75
YVDSEGIVRM | 10 to 20
KIEDLIKYL | 50 to 75
FLGDPPPGL | 50 to 75
TLWYVPLSL | > 75
VLKADVVLL | 20 to 50

Binder | peptide exchange yield [%]
SLYSYFQKV | > 75
ALFAAGANV | 50 to 75
SLLPTEQPRL | 50 to 75
ILDEEKFNV | 50 to 75
ILGDWSIQV | > 75
SVNGFISTL | 20 to 50
ILDEPTNHL | 20 to 50
GLDSGFHSV | > 75
VMFEYGMRL | > 75
VLFPMDLAL | 50 to 75
KMVGDVTGA | 50 to 75
ALDSDPVGL | 50 to 75
VLFKDPVSV | > 75
IVDNTTMQL | 50 to 75
FLNLFNHTL | > 75
KLLELQELVL | > 75
IIDDVMKEL | 20 to 50
SIPDTIASV | 50 to 75
HLDEARTLL | > 75
VLNEYFHNV | > 75
ALPPPPASI | 50 to 75
